Reference: article PMC9482650, “Quantitative fragmentomics allow affinity mapping of interactomes” (Nature Communications, 2022)

T1: APBA2_1, Q99767
T1 sequence (Q99767 563-664, limits assumed, looked up): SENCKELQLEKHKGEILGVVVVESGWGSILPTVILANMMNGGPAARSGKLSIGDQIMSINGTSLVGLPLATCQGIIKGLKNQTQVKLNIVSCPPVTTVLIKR

T2: APBA2_2, Q99767
T2 sequence (Q99767 654-744, limits assumed, looked up): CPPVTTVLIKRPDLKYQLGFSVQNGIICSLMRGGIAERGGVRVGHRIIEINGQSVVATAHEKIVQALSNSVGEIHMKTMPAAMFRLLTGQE

T3: CARD11, Q9BXL7
T3 sequence (Q9BXL7 662-765, limits assumed, looked up): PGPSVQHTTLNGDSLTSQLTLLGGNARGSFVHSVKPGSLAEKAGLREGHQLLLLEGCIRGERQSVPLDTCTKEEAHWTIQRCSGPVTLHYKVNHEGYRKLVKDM

T4: DVL3, Q92997
T4 sequence (Q92997 244-331, limits assumed, looked up): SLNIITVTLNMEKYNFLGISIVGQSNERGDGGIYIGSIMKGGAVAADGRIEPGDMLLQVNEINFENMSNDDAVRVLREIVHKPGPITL

T5: FRMPD1, Q5SYB0
T5 sequence (Q5SYB0 52-145, limits assumed, looked up): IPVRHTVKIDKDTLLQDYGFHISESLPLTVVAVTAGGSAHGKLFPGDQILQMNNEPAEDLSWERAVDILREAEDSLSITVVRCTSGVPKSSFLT

T6: GRIP1_7, Q9Y3R0
T6 sequence (Q9Y3R0 999-1096, limits assumed, looked up): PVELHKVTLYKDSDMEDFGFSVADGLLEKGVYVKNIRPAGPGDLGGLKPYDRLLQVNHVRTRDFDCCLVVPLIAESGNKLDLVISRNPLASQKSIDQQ

T7: HTRA4, P83105
T7 sequence (P83105 378-476, limits assumed, looked up): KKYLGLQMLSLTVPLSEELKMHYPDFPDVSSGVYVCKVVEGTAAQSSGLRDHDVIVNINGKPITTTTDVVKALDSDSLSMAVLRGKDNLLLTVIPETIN

T8: LNX2_2, Q8N448
T8 sequence (Q8N448 334-432, limits assumed, looked up): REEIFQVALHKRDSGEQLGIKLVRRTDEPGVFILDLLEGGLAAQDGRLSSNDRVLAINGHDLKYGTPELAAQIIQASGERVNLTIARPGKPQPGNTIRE

T9: MPDZ_12, O75970
T9 sequence (O75970 1857-1958, limits assumed, looked up): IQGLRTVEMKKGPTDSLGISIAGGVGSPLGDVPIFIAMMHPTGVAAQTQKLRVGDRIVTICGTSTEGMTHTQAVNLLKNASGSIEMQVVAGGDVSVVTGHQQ

T10: MPP2, Q14168
T10 sequence (Q14168 180-250, limits assumed, looked up): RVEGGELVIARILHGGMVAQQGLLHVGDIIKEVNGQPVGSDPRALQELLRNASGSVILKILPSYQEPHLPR

T11: MPP7, Q5T2T1
T11 sequence (Q5T2T1 134-230, limits assumed, looked up): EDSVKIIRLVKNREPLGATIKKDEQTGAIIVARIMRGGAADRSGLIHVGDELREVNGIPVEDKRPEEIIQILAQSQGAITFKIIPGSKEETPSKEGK

T12: NHERF3_3, Q5T2W1
T12 sequence (Q5T2W1 238-333, limits assumed, looked up): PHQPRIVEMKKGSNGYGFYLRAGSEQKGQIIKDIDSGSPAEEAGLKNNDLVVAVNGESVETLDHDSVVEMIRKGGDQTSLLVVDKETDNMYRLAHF

T13: PDZD7_3, Q9H5P4
T13 sequence (Q9H5P4 857-944, limits assumed, looked up): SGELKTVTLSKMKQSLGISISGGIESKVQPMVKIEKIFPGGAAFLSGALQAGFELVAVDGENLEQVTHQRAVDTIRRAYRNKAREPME

T14: SNTG1, Q9NSN8
T14 sequence (Q9NSN8 52-150, limits assumed, looked up): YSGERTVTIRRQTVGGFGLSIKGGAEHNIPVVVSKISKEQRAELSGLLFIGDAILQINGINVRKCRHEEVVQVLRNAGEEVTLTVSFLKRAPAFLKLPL

T15: TIAM2, Q8IVF5
T15 sequence (Q8IVF5 885-986, limits assumed, looked up): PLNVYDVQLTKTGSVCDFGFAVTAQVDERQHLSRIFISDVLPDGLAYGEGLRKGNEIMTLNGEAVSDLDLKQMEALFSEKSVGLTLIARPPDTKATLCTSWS


Each binder was assayed against AHNAK1, Q09666 (assay: holdup assay). Conditions: plain residues with an end cap or a label only (N-terminal biotin on a linker: ado-ado).
AHNAK1, Q09666, sequence (Q09666 4-100): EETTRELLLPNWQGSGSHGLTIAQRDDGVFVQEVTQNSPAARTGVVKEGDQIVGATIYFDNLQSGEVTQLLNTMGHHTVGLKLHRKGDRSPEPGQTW
Parameters: key: below the threshold = too weak to quantify, mostly under pKd 3.1 to 4
QLKSGRDSTV [TMEM178A, Q8NBL3] showed a pKd of 3.55.
NSTHNLKDYV [CLDN20, P56880] was tested, and the pKd was “below the threshold”.

What follows are binders tested against T1, APBA2_1, Q99767 (assay: holdup assay). Conditions: plain residues with an end cap or a label only (N-terminal biotin on a linker: ado-ado).
Parameters: key: below the threshold = too weak to quantify, mostly under pKd 3.1 to 4
Work on QLKSGRDSTV [TMEM178A, Q8NBL3] yielded a pKd of 3.52.
With NSTHNLKDYV [CLDN20, P56880] the pKd was “below the threshold”.

The binders below were run against T2, APBA2_2, Q99767 (assay: holdup assay). Conditions: plain residues with an end cap or a label only (N-terminal biotin on a linker: ado-ado).
Parameters: key: below the threshold = too weak to quantify, mostly under pKd 3.1 to 4
QLKSGRDSTV [TMEM178A, Q8NBL3] was tested, and the pKd was “below the threshold”.
NSTHNLKDYV [CLDN20, P56880] was tested, and the pKd was “below the threshold”.

Each binder was assayed against ARHGEF12, Q9NZN5-2 (assay: holdup assay). Conditions: plain residues with an end cap or a label only (N-terminal biotin on a linker: ado-ado).
ARHGEF12, Q9NZN5-2, sequence (Q9NZN5 other isoform, or with tags, fused parts or gaps): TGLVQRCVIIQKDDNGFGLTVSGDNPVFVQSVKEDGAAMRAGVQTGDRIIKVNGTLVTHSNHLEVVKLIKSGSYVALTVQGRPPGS
Parameters: key: below the threshold = too weak to quantify, mostly under pKd 3.1 to 4
QLKSGRDSTV [TMEM178A, Q8NBL3] was tested, and the pKd was “below the threshold”.
With NSTHNLKDYV [CLDN20, P56880] the pKd was “below the threshold”.

These binders were tested against T3, CARD11, Q9BXL7 (assay: holdup assay). Conditions: plain residues with an end cap or a label only (N-terminal biotin on a linker: ado-ado).
Parameters: key: below the threshold = too weak to quantify, mostly under pKd 3.1 to 4
QLKSGRDSTV [TMEM178A, Q8NBL3] was tested, and the pKd was “below the threshold”.
With NSTHNLKDYV [CLDN20, P56880] the pKd was “below the threshold”.

What follows are binders tested against T4, DVL3, Q92997 (assay: holdup assay). Conditions: plain residues with an end cap or a label only (N-terminal biotin on a linker: ado-ado).
Parameters: key: below the threshold = too weak to quantify, mostly under pKd 3.1 to 4
For QLKSGRDSTV [TMEM178A, Q8NBL3], the pKd was “below the threshold”.
In the case of NSTHNLKDYV [CLDN20, P56880], the pKd is reported as “below the threshold”.

These binders were tested against T5, FRMPD1, Q5SYB0 (assay: holdup assay). Conditions: plain residues with an end cap or a label only (N-terminal biotin on a linker: ado-ado).
Parameters: key: below the threshold = too weak to quantify, mostly under pKd 3.1 to 4
QLKSGRDSTV [TMEM178A, Q8NBL3] was tested, and the pKd was “below the threshold”.
With NSTHNLKDYV [CLDN20, P56880] the pKd was “below the threshold”.

These binders were tested against T6, GRIP1_7, Q9Y3R0 (assay: holdup assay). Conditions: plain residues with an end cap or a label only (N-terminal biotin on a linker: ado-ado).
Parameters: key: below the threshold = too weak to quantify, mostly under pKd 3.1 to 4
QLKSGRDSTV [TMEM178A, Q8NBL3] was tested, and the pKd was “below the threshold”.
With NSTHNLKDYV [CLDN20, P56880] the pKd was “below the threshold”.

Each binder was assayed against GRIP2_3, Q9C0E4 (assay: holdup assay). Conditions: plain residues with an end cap or a label only (N-terminal biotin on a linker: ado-ado).
GRIP2_3, Q9C0E4, sequence (Q9C0E4 238-339): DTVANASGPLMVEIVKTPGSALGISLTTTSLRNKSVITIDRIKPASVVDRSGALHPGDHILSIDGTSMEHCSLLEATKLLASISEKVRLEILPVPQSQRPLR
Parameters: key: below the threshold = too weak to quantify, mostly under pKd 3.1 to 4
In the case of QLKSGRDSTV [TMEM178A, Q8NBL3], the pKd is reported as 3.51.
For NSTHNLKDYV [CLDN20, P56880], the pKd was “below the threshold”.

Each binder was assayed against T7, HTRA4, P83105 (assay: holdup assay). Conditions: plain residues with an end cap or a label only (N-terminal biotin on a linker: ado-ado).
Parameters: key: below the threshold = too weak to quantify, mostly under pKd 3.1 to 4
With QLKSGRDSTV [TMEM178A, Q8NBL3] the pKd was “below the threshold”.
For NSTHNLKDYV [CLDN20, P56880], the pKd was “below the threshold”.

What follows are binders tested against Inadl_3, Q8NI35 (assay: holdup assay). Conditions: plain residues with an end cap or a label only (N-terminal biotin on a linker: ado-ado).
Inadl_3, Q8NI35, sequence (Q8NI35 359-469): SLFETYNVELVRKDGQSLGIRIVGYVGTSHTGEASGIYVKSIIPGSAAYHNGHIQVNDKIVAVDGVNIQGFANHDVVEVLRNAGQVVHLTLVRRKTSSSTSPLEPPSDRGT
Parameters: key: below the threshold = too weak to quantify, mostly under pKd 3.1 to 4
QLKSGRDSTV [TMEM178A, Q8NBL3] was tested, and the pKd was “below the threshold”.
For NSTHNLKDYV [CLDN20, P56880], the pKd was “below the threshold”.

The binders below were run against LIMK2, P53671 (assay: holdup assay). Conditions: plain residues with an end cap or a label only (N-terminal biotin on a linker: ado-ado).
LIMK2, P53671, sequence (P53671 143-248): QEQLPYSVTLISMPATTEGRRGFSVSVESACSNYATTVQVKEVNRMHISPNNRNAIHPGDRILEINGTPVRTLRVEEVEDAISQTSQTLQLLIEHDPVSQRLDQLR
Parameters: key: below the threshold = too weak to quantify, mostly under pKd 3.1 to 4
With QLKSGRDSTV [TMEM178A, Q8NBL3] the pKd was “below the threshold”.
With NSTHNLKDYV [CLDN20, P56880] the pKd was “below the threshold”.

The binders below were run against T8, LNX2_2, Q8N448 (assay: holdup assay). Conditions: plain residues with an end cap or a label only (N-terminal biotin on a linker: ado-ado).
Parameters: key: below the threshold = too weak to quantify, mostly under pKd 3.1 to 4
QLKSGRDSTV [TMEM178A, Q8NBL3] showed a pKd of 3.49.
NSTHNLKDYV [CLDN20, P56880] was tested, and the pKd was 4.12.

Each binder was assayed against MAST2, Q6P0Q8 (assay: holdup assay). Conditions: plain residues with an end cap or a label only (N-terminal biotin on a linker: ado-ado).
MAST2, Q6P0Q8, sequence (Q6P0Q8 1099-1202): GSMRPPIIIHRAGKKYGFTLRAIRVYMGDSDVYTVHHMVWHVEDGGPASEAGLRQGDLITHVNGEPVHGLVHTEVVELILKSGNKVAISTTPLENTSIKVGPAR
Parameters: key: below the threshold = too weak to quantify, mostly under pKd 3.1 to 4
In the case of QLKSGRDSTV [TMEM178A, Q8NBL3], the pKd is reported as 4.08.
For NSTHNLKDYV [CLDN20, P56880], the pKd was “below the threshold”.

The binders below were run against T9, MPDZ_12, O75970 (assay: holdup assay). Conditions: plain residues with an end cap or a label only (N-terminal biotin on a linker: ado-ado).
Parameters: key: below the threshold = too weak to quantify, mostly under pKd 3.1 to 4
For QLKSGRDSTV [TMEM178A, Q8NBL3], the pKd was “below the threshold”.
For NSTHNLKDYV [CLDN20, P56880], the pKd was “below the threshold”.

What follows are binders tested against T10, MPP2, Q14168 (assay: holdup assay). Conditions: plain residues with an end cap or a label only (N-terminal biotin on a linker: ado-ado).
Parameters: key: below the threshold = too weak to quantify, mostly under pKd 3.1 to 4
QLKSGRDSTV [TMEM178A, Q8NBL3] was tested, and the pKd was “below the threshold”.
In the case of NSTHNLKDYV [CLDN20, P56880], the pKd is reported as “below the threshold”.

The binders below were run against T11, MPP7, Q5T2T1 (assay: holdup assay). Conditions: plain residues with an end cap or a label only (N-terminal biotin on a linker: ado-ado).
Parameters: key: below the threshold = too weak to quantify, mostly under pKd 3.1 to 4
For QLKSGRDSTV [TMEM178A, Q8NBL3], the pKd was “below the threshold”.
For NSTHNLKDYV [CLDN20, P56880], the pKd was “below the threshold”.

The binders below were run against T12, NHERF3_3, Q5T2W1 (assay: holdup assay). Conditions: plain residues with an end cap or a label only (N-terminal biotin on a linker: ado-ado).
Parameters: key: below the threshold = too weak to quantify, mostly under pKd 3.1 to 4
QLKSGRDSTV [TMEM178A, Q8NBL3] was tested, and the pKd was “below the threshold”.
NSTHNLKDYV [CLDN20, P56880] was tested, and the pKd was “below the threshold”.

The binders below were run against T13, PDZD7_3, Q9H5P4 (assay: holdup assay). Conditions: plain residues with an end cap or a label only (N-terminal biotin on a linker: ado-ado).
Parameters: key: below the threshold = too weak to quantify, mostly under pKd 3.1 to 4
With QLKSGRDSTV [TMEM178A, Q8NBL3] the pKd was 4.19.
In the case of NSTHNLKDYV [CLDN20, P56880], the pKd is reported as “below the threshold”.

What follows are binders tested against SCRIB_1, Q14160 (assay: holdup assay). Conditions: plain residues with an end cap or a label only (N-terminal biotin on a linker: ado-ado).
SCRIB_1, Q14160, sequence (Q14160 718-814): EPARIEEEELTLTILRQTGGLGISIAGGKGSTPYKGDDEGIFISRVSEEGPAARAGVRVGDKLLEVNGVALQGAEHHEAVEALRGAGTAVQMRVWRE
Parameters: key: below the threshold = too weak to quantify, mostly under pKd 3.1 to 4
Work on QLKSGRDSTV [TMEM178A, Q8NBL3] yielded a pKd of 3.56.
In the case of NSTHNLKDYV [CLDN20, P56880], the pKd is reported as “below the threshold”.

These binders were tested against T14, SNTG1, Q9NSN8 (assay: holdup assay). Conditions: plain residues with an end cap or a label only (N-terminal biotin on a linker: ado-ado).
Parameters: key: below the threshold = too weak to quantify, mostly under pKd 3.1 to 4
QLKSGRDSTV [TMEM178A, Q8NBL3] gave a pKd of 3.81.
In the case of NSTHNLKDYV [CLDN20, P56880], the pKd is reported as “below the threshold”.

What follows are binders tested against T15, TIAM2, Q8IVF5 (assay: holdup assay). Conditions: plain residues with an end cap or a label only (N-terminal biotin on a linker: ado-ado).
Parameters: key: below the threshold = too weak to quantify, mostly under pKd 3.1 to 4
For QLKSGRDSTV [TMEM178A, Q8NBL3], the pKd was “below the threshold”.
NSTHNLKDYV [CLDN20, P56880] was tested, and the pKd was “below the threshold”.

Each binder was assayed against TJP1_2, Q07157 (assay: holdup assay). Conditions: plain residues with an end cap or a label only (N-terminal biotin on a linker: ado-ado).
TJP1_2, Q07157, sequence (Q07157 181-274): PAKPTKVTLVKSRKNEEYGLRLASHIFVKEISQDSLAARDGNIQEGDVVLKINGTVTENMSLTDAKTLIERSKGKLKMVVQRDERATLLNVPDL
Parameters: key: below the threshold = too weak to quantify, mostly under pKd 3.1 to 4
With QLKSGRDSTV [TMEM178A, Q8NBL3] the pKd was “below the threshold”.
With NSTHNLKDYV [CLDN20, P56880] the pKd was “below the threshold”.
